Source: paper PMC2268108

Legend:
[1] = target: canine kidney Na,K-ATPase (αβ protomer), erythrosin-labelled (dog (endogenous in kidney)) (UniProt P50997); experiment: time-resolved phosphorescence anisotropy
[2] = target: Na/K pump α1 subunit-CFP fusion; experiment: FRET or BRET

Row | stoichiometry N [1] | increase of donor fluorescence on acceptor photobleaching [2] [%] | Substance
1 | 2 |  | canine kidney Na,K-ATPase (αβ protomer), erythrosin-labelled (from UniProt P50997;P06583) (complex)
2 |  | 23.8 | phospholemman-citrineYFP fusion (natural protein)
